Values quoted from earlier work as cited in PMC8894612.

Molecular target: Regnase-1 (UniProt Q5D1E7)
Assay: Biacore SPR

Chain of UniProt Q5D1E7 (Q5D1E7 whole entry): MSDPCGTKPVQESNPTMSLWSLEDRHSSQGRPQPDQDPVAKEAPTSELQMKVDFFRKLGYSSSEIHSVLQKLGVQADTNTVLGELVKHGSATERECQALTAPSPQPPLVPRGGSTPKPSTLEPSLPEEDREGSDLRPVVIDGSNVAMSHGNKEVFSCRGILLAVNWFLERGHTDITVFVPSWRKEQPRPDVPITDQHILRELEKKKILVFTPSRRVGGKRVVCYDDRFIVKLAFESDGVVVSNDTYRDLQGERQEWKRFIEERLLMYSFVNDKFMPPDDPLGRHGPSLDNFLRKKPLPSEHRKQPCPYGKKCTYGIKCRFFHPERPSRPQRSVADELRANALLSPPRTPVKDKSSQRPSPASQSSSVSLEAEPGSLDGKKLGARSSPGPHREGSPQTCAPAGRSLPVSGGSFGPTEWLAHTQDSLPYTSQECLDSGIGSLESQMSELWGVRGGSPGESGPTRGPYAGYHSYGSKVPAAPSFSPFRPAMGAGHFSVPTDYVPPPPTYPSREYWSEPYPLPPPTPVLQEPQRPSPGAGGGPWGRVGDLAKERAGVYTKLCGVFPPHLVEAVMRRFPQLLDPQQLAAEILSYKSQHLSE

- Kd: 417 nM
Substance: Roquin-1 (from UniProt Q4VGL6)
